Measurements taken from the supplement of paper PMC10567573.

B1: MYBL2 (parent)
chain: VKKSCWTEEEDRIICEAHKVLGNR

Variants of: B1
Assay: protein stability index of a GFP-peptide fusion (GPS, HEK-293T) (PSI 1-6); higher = more stable
Details: c terminus: a fixed tail appended
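Note: lentivirally expressed fusions sorted by FACS into six bins by GFP to DsRed ratio, PSI derived from sequencing read proportions per bin multiplied by bin number.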

Protein stability index, by site and new letter:
S4: E 3.82; A 3.31; N 3.51; I 3.21; W 1.98; L 3.33; V 3.41; F 2.83; D 3.58; R 3; G 3.53; Q 3.17; M 3.06; H 2.77; K 3.49; C 2.53; Y 2.27; P 3.49; T 2.97
A17: E 3.49; K 3.68; S 3.36; Q 3.83; G 4.14; L 1.59; H 3.46; D 4.36; T 2.92; P 3.12; Y 2.39; F 2.65; W 2.55; C 2.12; N 3.88; I 2.09; M 3.03; V 2.37; R 3.51
C5: T 3.79; W 2.73; N 3.38; S 4.1; I 3.24; F 3.22; M 3; H 3.63; Q 4.21; K 3.53; G 3.75; A 3.47; P 3.69; L 2.01; D 3.77; E 4.19; Y 3.47; R 3.88; V 3.31
E9: P 2.82; H 2.69; M 2.1; K 3.37; C 2.6; T 3.28; W 2.35; V 2.45; N 3.3; A 2.59; I 2.57; Q 3.45; R 2.58; D 3.34; L 2.98; G 2.8; Y 2.16; F 2.31; S 2.66
E16: Q 3.14; W 2.39; F 1.69; P 3.54; H 3.1; A 2.84; R 3.13; K 3.08; D 3.66; Y 2.32; V 2.31; M 1.78; C 1.94; N 3.15; L 1.83; T 2.72; G 4; S 3.06; I 1.84
I13: H 3.29; F 3; Q 4.24; R 3.19; D 4.37; A 4.41; W 2.47; N 3.46; L 3.06; S 4.32; P 3.85; C 2.77; T 3.74; E 3.5; V 4.55; G 4.41; K 3.82; Y 3.01; M 3.67
V1: H 3.69; S 3.35; L 3.02; P 3.66; I 3.23; N 3.33; W 3.12; R 3.9; T 3.78; E 3.07; K 3.34; Q 3.23; M 3.32; Y 2.71; F 2.87; G 3.32
R12: N 3.7; P 3.38; C 2.17; Y 3.16; K 4.05; F 3.1; T 3.2; S 3.25; G 3.58; V 3.28; A 3.29; D 3.15; L 2.87; H 3.55; I 3.38; W 2.22; Q 3.62; E 3.48
H18: M 2.73; E 3.83; N 3.88; G 3.2; P 4; A 3.47; D 4.01; F 2.63; Q 3.35; L 2.45; R 2.69; K 3.73; I 2.91; S 3.81; C 1.8
C15: G 4.39; F 2.79; H 3.76; M 2.87; E 3.94; V 3.85; R 3.36; Q 3.85; N 3.65; T 3.74; P 4.16; L 3.82; W 2.59; I 3.47; Y 3.01; A 3.43; D 4.16; K 3.47; S 3.69
D11: N 3.72; L 2.21; S 2.8; E 3.43; H 3.57; K 2.74; R 2.85; W 2.42; Y 2.38; F 1.59; I 1.71; Q 3; G 3.01; M 2.12; V 3.39; A 2.95; C 2.53; T 2.83; P 2.76
K3: E 4.1; Q 3.27; I 2.4; S 3.12; Y 2.76; A 3.43; N 2.78; W 2.21; D 3.54; C 2.39; H 3.26; G 3.38; M 2.78; T 2.76; P 3.14; L 2.49; V 2.52; R 3.3; F 2.69
I14: N 3.28; P 3.67; Q 4; D 3.69; A 4.24; S 4.11; F 2.91; T 4.39; M 3.29; G 2.86; R 3.7; H 4.29; L 3.41; C 3.3; Y 3.23; W 3.12; V 3.71; K 4.53; E 4.24
E8: Y 2.79; S 3.51; D 3.11; V 2.85; G 2.44; I 1.85; R 2.9; L 2.69; M 3.37; P 3.4; Q 3.5; N 4.1; W 2.47; T 2.45; H 3.33; F 2.48; K 3.17; A 3.12; C 2.61
T7: W 2.32; A 2.98; Q 2.59; Y 2.93; M 3.03; N 3.14; R 3.59; G 3.02; V 3.54; E 2.82; P 3.65; H 2.95; D 3.76; F 2.2; I 4; K 3.51; S 2.83; L 3.11; C 3.05
W6: N 4.17; Q 4.36; L 3.85; V 3.5; M 3.99; Y 3.5; E 4.7; K 4.05; G 3.97; A 3.92; F 3.54; C 4.48; T 3.94; R 3.87; H 3.07; P 4.4; D 4.33; I 3.7; S 4.09
E10: G 3.15; T 2.47; W 1.78; C 2.27; D 3.1; H 3.08; R 2.65; Y 2.28; L 2.06; K 2.99; V 2.13; N 3.21; S 2.96; M 1.99; A 2.38; F 1.99; Q 3.26; P 2.99; I 2.39
K2: S 3.8; H 3.25; Y 3.35; A 3.28; C 2.31; F 2.86; N 3.43; E 3.19; D 4.25; G 3.46; P 3.47; I 2.89; L 2.98; Q 3.6; T 2.97; V 2.76; R 3.54; M 2.92; W 2.3
